The source of these data is PMC5629210.

The target in this test is SRGAP1 (UniProt Q7Z6B7). In words: GFP-trap of SRGAP1-GFP, blot for cortactin-mCherry. The settings on record: reference: wild type cortactin-mCherry; sites Y421,Y470,Y486.

Consider “cortactin (from UniProt Q14247) 3YF cortactin-mCherry”, for which the “binding against the reference” value is “stronger”.
